Assay results: patent publication US20260184777A1 (BEIJING SUNGEN BIOMEDICAL TECHNOLOGY, published 2026)
Substitutions are numbered along the chain they refer to.

T1: human S100A8/A9 heterodimeric antigen, His-tagged (hS100A8/A9-His) (human, UniProt P05109 1-93; P06702 1-114)
T1 sequence 1: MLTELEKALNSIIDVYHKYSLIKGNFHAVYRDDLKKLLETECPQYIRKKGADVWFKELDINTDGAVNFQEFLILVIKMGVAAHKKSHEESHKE
T1 sequence 2: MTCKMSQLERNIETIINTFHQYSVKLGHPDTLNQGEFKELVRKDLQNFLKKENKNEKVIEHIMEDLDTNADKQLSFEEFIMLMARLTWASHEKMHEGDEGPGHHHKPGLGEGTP

B1: CM-63 (antibody, human IgG4 S228P, lambda, V domains shown)
VH: EVQLVESGGGLVQPGGSLRLSCAASGFTFSSYAMSWVRQAPGKGLEWVSAISGSGGSTWYAASVKGRFTISRDNSKNTLYLQMNSLRAEDTAVYYCARKYRPSRVFDAWGQGTLVTVSS
VL: SYELTQPPSVSVAPGQTARITCSGDALGDKYASWYQQKPGQAPVLVIYEDAKRPSGIPERFSGSNSGNTATLTISGTQAEDEADYYCQSNDVDAVWVFGGGTKLTVLG
B2: CM-75 (antibody, human IgG4 S228P, lambda, V domains shown)
VH: B1 VH with W59Y, A61V, V105A
VL: B1 VL with Y31F, E49Q, V92A
B3: CM-74 (antibody, human IgG4 S228P, lambda, V domains shown)
VH: B1 VH with F106Y
VL: B1 VL with K52R, V92I
B4: CM-77 (antibody, human IgG4 S228P, lambda, V domains shown)
VH: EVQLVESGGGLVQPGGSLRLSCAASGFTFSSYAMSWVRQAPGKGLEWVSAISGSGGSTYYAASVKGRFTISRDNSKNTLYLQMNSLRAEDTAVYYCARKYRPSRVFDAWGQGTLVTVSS
VL: B1 VL with K52N, V92A
B5: CM-66 (antibody, human IgG4 S228P, lambda, V domains shown)
VH: B1 VH with F29Y, W59Y, V105A
VL: B1 VL with V92I
B6: CM-72 (antibody, human IgG4 S228P, lambda, V domains shown)
VH: B1 VH with F29Y, W59Y, V105A
VL: B1 VL with Y31F, V92I
B7: CM-68 (antibody, human IgG4 S228P, lambda, V domains shown)
VH: B1 VH with M34I, W59Y, V105A
VL: B1 VL with V92L
B8: CM-73 (antibody, human IgG4 S228P, lambda, V domains shown)
VH: B1 VH with F29Y, W59Y, V105A
VL: B1 VL with E49Q, V92I
B9: CM-64 (antibody, human IgG4 S228P, lambda, V domains shown)
VH: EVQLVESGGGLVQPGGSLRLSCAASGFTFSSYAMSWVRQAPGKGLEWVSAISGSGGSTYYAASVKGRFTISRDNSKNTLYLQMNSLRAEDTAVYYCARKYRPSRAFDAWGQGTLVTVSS
VL: B1 VL with Y31F, V92A
B10: CM-71 (antibody, human IgG4 S228P, lambda, V domains shown)
VH: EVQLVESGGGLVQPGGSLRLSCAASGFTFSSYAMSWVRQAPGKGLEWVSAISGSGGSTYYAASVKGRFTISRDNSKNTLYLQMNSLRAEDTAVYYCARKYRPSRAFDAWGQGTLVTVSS
VL: B1 VL with Y31F, V92I
B11: CM-69 (antibody, human IgG4 S228P, lambda, V domains shown)
VH: B1 VH with V105A
VL: B1 VL with E49Q, V92A
B12: CM-70 (antibody, human IgG4 S228P, lambda, V domains shown)
VH: B1 VH with W59Y, A61H, V105A
VL: B1 VL with Y31F, V92A
B13: CM-67 (antibody, human IgG4 S228P, lambda, V domains shown)
VH: B1 VH with Y32H, W59Y, Y100F
VL: B1 VL with K52R, V92A
B14: CM-76 (antibody, human IgG4 S228P, lambda, V domains shown)
VH: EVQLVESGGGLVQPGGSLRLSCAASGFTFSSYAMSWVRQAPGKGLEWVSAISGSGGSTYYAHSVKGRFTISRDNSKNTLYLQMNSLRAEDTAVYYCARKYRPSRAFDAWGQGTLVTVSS
VL: B1 VL with Y31F
B15: CM-65 (antibody, human IgG4 S228P, lambda, V domains shown)
VH: B1 VH with F29Y, W59Y
VL: B1 VL with E49Q, V92I

These binders were tested against T1, human S100A8/A9 heterodimeric antigen, … (assay: cell-based or functional assay).
For B1, the “Relative IC50 (IC50 relative to CM-1), IL-6 release from hS100A8/A9-activated human PBMCs” value (shortened to “Relative IC50”) was 1.33 relative to CM-1.
B2 was tested, and the “Relative IC50” value was 2.85 relative to CM-1.
B3 was tested, and the “Relative IC50” value was 1.52 relative to CM-1.
For B4, the “Relative IC50” value was 0.633 relative to CM-1.
In the case of B5, the “Relative IC50” value is reported as 0.694 relative to CM-1.
With B6 the “Relative IC50” value was 0.639 relative to CM-1.
With B7 the “Relative IC50” value was 1.78 relative to CM-1.
With B8 the “Relative IC50” value was 0.703 relative to CM-1.
With B9 the “Relative IC50” value was 0.5 relative to CM-1.
For B10, the “Relative IC50” value was 1.23 relative to CM-1.
In the case of B11, the “Relative IC50” value is reported as 1.93 relative to CM-1.
With B12 the “Relative IC50” value was 1.95 relative to CM-1.
B13 was tested, and the “Relative IC50” value was 0.548 relative to CM-1.
B14 was tested, and the “Relative IC50” value was 1.55 relative to CM-1.
B15 was tested, and the “Relative IC50” value was 0.618 relative to CM-1.
